Experimental data as given in patent US20260167959A1, “APTAZYME-BASED REGULATABLE GENE EXPRESSION SYSTEMS” (REJUVENATE BIO INC, priority 2022, published 2026).

system: Renilla luciferase RNA; assay: Barcoded aptazyme variant library screen: un-cleaved Renilla luciferase RNA by barcode read counts, HEK293-T cells; assay type: cell-based; settings: un-cleaved Renilla luciferase RNA, HEK293-T cells cultured with 1 mM theophylline (ON) over without theophylline (OFF); barcode read counts, triplicate
Procedure, shortened: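 Aptazyme variants (seven theophylline aptamers inserted after each T3H48 ribozyme nucleotide, 9-nt barcoded) cloned into the 3′ UTR of Renilla luciferase in psiCHECK-2; cells cultured ± theophylline, in triplicate. RNA and DNA barcodes amplified and sequenced; normalized read counts gave un-cleaved RNA fraction and ON/OFF fold-change.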

Molecule | Fold change in RNA expression between the ON state and the OFF state
RA097 (nucleic acid, expressed or natural sequence) DNA: GCGCGTCCTGGATTCGCGGAAACGCGTACATCCAGCTGACGAGTCCCAGAATACCAGCATCGTCTTGATGCCCTTGGAAGTCTAAATAGGACGAAACGCGC | 1.6 fold
RA083 (nucleic acid, expressed or natural sequence) DNA: GCGCGTCCGGAATACCAGCATCGTCTTGATGCCCTTGGAAGTCCTGGATTCGCGGAAACGCGTACATCCAGCTGACGAGTCCCAAATAGGACGAAACGCGC | 1.7 fold
RA009 (nucleic acid, expressed or natural sequence) DNA: GCGCGTCCTGGATTCGCGGAAACGCGTACATCCAGCTGACGAGTCCCAAATAGGACGACCGGAATACCAGCATCGTCTTGATGCCCTTGGAAGTCCGGAACGCGC | 3.8 fold
RA080 (nucleic acid, expressed or natural sequence) DNA: GCGCGTCCTGGATTCGGAGAATACCAGCATCGTCTTGATGCCCTTGGAAGTCTCCGGAAACGCGTACATCCAGCTGACGAGTCCCAAATAGGACGAAACGCGC | 1.7 fold
RA093 (nucleic acid, expressed or natural sequence) DNA: AGTGATACCAGCATCGTCTTGATGCCCTTGGCAGCACTGCGCGTCCTGGATTCGCGGAAACGCGTACATCCAGCTGACGAGTCCCAAATAGGACGAAACGCGC | 1.6 fold
RA089 (nucleic acid, expressed or natural sequence) DNA: GCGCGTCCTGGATTCGCGGAAACGCGTACATCCAGCTGACGAGTCCCAAATAGGACCGGAATACCAGCATCGTCTTGATGCCCTTGGAAGTCCGGAAACGCGC | 1.7 fold
RA096 (nucleic acid, expressed or natural sequence) DNA: GCGCGTCAGTGATACCAGCATCGTCTTGATGCCCTTGGCAGCACTCTGGATTCGCGGAAACGCGTACATCCAGCTGACGAGTCCCAAATAGGACGAAACGCGC | 1.6 fold
RA078 (nucleic acid, expressed or natural sequence) DNA: GCGCGTCCTGGATTCGCGGAAACGCGTACATCCAGCTGACGAGTCCCAAATAGGACGAAACGCCGAGAATACCAGCATCGTCTTGATGCCCTTGGAAGTCTCGGC | 1.8 fold
RA081 (nucleic acid, expressed or natural sequence) DNA: GCGCGTCCTGGATTCGCGGAAACGCGTACATCCAGCTGACGAGTCCCAAGGAATACCAGCATCGTCTTGATGCCCTTGGAAGTCCATAGGACGAAACGCGC | 1.7 fold
RA084 (nucleic acid, expressed or natural sequence) DNA: GCGCGTCCTGGAGAGAATACCAGCATCGTCTTGATGCCCTTGGAAGTCTCTTCGCGGAAACGCGTACATCCAGCTGACGAGTCCCAAATAGGACGAAACGCGC | 1.7 fold
RA090 (nucleic acid, expressed or natural sequence) DNA: GCGCGTCCTGGAAGTGATACCAGCATCGTCTTGATGCCCTTGGCAGCACTTTCGCGGAAACGCGTACATCCAGCTGACGAGTCCCAAATAGGACGAAACGCGC | 1.7 fold
RA085 (nucleic acid, expressed or natural sequence) DNA: GCGCGTCCTGGATTCGCGGAAACGCGTACATCCAGAATACCAGCATCGTCTTGATGCCCTTGGAAGTCTAGCTGACGAGTCCCAAATAGGACGAAACGCGC | 1.7 fold
RA079 (nucleic acid, expressed or natural sequence) DNA: GCGCGTCCTGGATTCGCGGAAACGCGTACATCCAGCGAGAATACCAGCATCGTCTTGATGCCCTTGGAAGTCTCGCTGACGAGTCCCAAATAGGACGAAACGCGC | 1.8 fold
RA104 (nucleic acid, expressed or natural sequence) DNA: GCGCGTCCTGGATTCGCGGAAACGCGTACATCCAGCTGACGAGTCCCAAATCGAGAATACCAGCATCGTCTTGATGCCCTTGGAAGTCTCGAGGACGAAACGCGC | 1.6 fold
RA088 (nucleic acid, expressed or natural sequence) DNA: GCGCGTCCTGGATTCGCGGAAACGCGTACATCCCGAGAATACCAGCATCGTCTTGATGCCCTTGGAAGTCTCGAGCTGACGAGTCCCAAATAGGACGAAACGCGC | 1.7 fold
RA098 (nucleic acid, expressed or natural sequence) DNA: GCGCGTCCTGGATTCGCGGAAACGCGTACATCCCCGGAATACCAGCATCGTCTTGATGCCCTTGGAAGTCCGGAGCTGACGAGTCCCAAATAGGACGAAACGCGC | 1.6 fold
RA094 (nucleic acid, expressed or natural sequence) DNA: GCGCGTCCTGGATTCGCGGAGGAATACCAGCATCGTCTTGATGCCCTTGGAAGTCCAACGCGTACATCCAGCTGACGAGTCCCAAATAGGACGAAACGCGC | 1.6 fold
RA099 (nucleic acid, expressed or natural sequence) DNA: GCGCGTCCTGGATTCGCGGAAACGCGTACATAGTGATACCAGCATCGTCTTGATGCCCTTGGCAGCACTCCAGCTGACGAGTCCCAAATAGGACGAAACGCGC | 1.6 fold
RA100 (nucleic acid, expressed or natural sequence) DNA: GCGCGTCCTGGATTCGCGGAAACGCGTACATCCAGCTGACCGGAATACCAGCATCGTCTTGATGCCCTTGGAAGTCCGGAGTCCCAAATAGGACGAAACGCGC | 1.6 fold
RA095 (nucleic acid, expressed or natural sequence) DNA: GCGCGTCAGAATACCAGCATCGTCTTGATGCCCTTGGAAGTCTCTGGATTCGCGGAAACGCGTACATCCAGCTGACGAGTCCCAAATAGGACGAAACGCGC | 1.6 fold
RA102 (nucleic acid, expressed or natural sequence) DNA: GCGCGTCGGAATACCAGCATCGTCTTGATGCCCTTGGAAGTCCCTGGATTCGCGGAAACGCGTACATCCAGCTGACGAGTCCCAAATAGGACGAAACGCGC | 1.6 fold
RA101 (nucleic acid, expressed or natural sequence) DNA: GCGCGTCCTGGATTCGCGGAAACGCGTACATCCAGCTGACGAGTCCCAAATAGGACGAACGGAATACCAGCATCGTCTTGATGCCCTTGGAAGTCCGACGCGC | 1.6 fold
RA103 (nucleic acid, expressed or natural sequence) DNA: GCGCGTCCTGGATTCGCGGAAACGCGTACATCCAGCTGACGGAATACCAGCATCGTCTTGATGCCCTTGGAAGTCCGAGTCCCAAATAGGACGAAACGCGC | 1.6 fold
RA092 (nucleic acid, expressed or natural sequence) DNA: GCGCGTCCTGGATTCGCGGAAACGCGTACATCCAGCTGACGAGTCCCAAATAGGACCGGAATACCAGCATCGTCTTGATGCCCTTGGAAGTCCGGCGAAACGCGC | 1.6 fold
RA087 (nucleic acid, expressed or natural sequence) DNA: GCGCGTCCTGGATTCGCGGAAACGCGTACATCCAGCTGACGAGCGAGAATACCAGCATCGTCTTGATGCCCTTGGAAGTCTCGTCCCAAATAGGACGAAACGCGC | 1.7 fold
RA091 (nucleic acid, expressed or natural sequence) DNA: GGAATACCAGCATCGTCTTGATGCCCTTGGAAGTCCGCGCGTCCTGGATTCGCGGAAACGCGTACATCCAGCTGACGAGTCCCAAATAGGACGAAACGCGC | 1.6 fold
RA008 (nucleic acid, expressed or natural sequence) DNA: GCGCGTCCTGGATTCGCGGAAACGGAATACCAGCATCGTCTTGATGCCCTTGGAAGTCCGCGCGTACATCCAGCTGACGAGTCCCAAATAGGACGAAACGCGC | 4.2 fold
RA086 (nucleic acid, expressed or natural sequence) DNA: GCGCGTCCTGGATTCGCGGAAACGCGGAATACCAGCATCGTCTTGATGCCCTTGGAAGTCCGCGTACATCCAGCTGACGAGTCCCAAATAGGACGAAACGCGC | 1.7 fold
RA082 (nucleic acid, expressed or natural sequence) DNA: GCGCGTCCTGGATTCGAGAATACCAGCATCGTCTTGATGCCCTTGGAAGTCTCGGAAACGCGTACATCCAGCTGACGAGTCCCAAATAGGACGAAACGCGC | 1.7 fold
